Results on seven molecules are retold here after patent publication US7485710B2, “Nucleic acids coding for adhesion factor of group B streptococcus, adhesion factors of group B streptococcus and further uses thereof” (priority 2002, dated 2009).

For experiment [1], the target named is T1, human fibrinogen (Homo sapiens, UniProt P02671+P02675+P02679).
T1 construct: purchased Sigma-Aldrich
The experiment in a line: Spot membrane analysis of fibrinogen binding by synthetic peptides. To be noted: peptides derived from FbsA repeat GNVLERRQRDAENRSQ
As for the experimental part:
Fibrinogen binding was tested with peptides carrying the FbsA repeat motif ‘GNVLERRQRDAENRSQ’ (SEQ ID 113) and with peptides containing the scrambled sequence ‘GLSQNRDVRENQRARE’. (SEQ ID 205) Synthetic peptides, which differed from the repeat motif in that single amino acids had been replaced by alanine, were probed for fibrinogen binding. Beside the spot membrane, the sequence of each synthetic peptide is listed. Bold and underlined letters indicate amino acid substitutions within the repeat motif.
Synthetic peptides were tested for fibrinogen binding, in which each of the amino acids of the fibrinogen-binding repeat was replaced by each of the 20 amino acids. The vertical letters, printed in bold, represent the FbsA-derived fibrinogen binding sequence ‘GNVLERRQRDAENRSQ’ (SEQ ID NO: 113). The horizontal letters represent those amino acids that were introduced in the synthetic peptides instead of the original amino acid in the respective position.
In Western blot experiments proteins were separated by SDS-PAGE and electroblotted onto nitrocellulose. […] For spot membrane experiments peptides of 16 amino acids were synthesized and equal amounts of the peptides were directly spotted onto cellulose paper as described previously (Frank and Overwin, 1996). Blocking was performed in membrane blocking solution (MBS) that consisted of 20 ml casein based blocking buffer (Genosys Biotechnologies, Cambridge, England), 80 ml Tris-buffered saline (TBS), 0.05% tween 20, and 5 g sucrose. Probing for fibrinogen-binding was performed as described below.
Membranes that had been blocked overnight were incubated for 1 h with 2 μg/ml of human fibrinogen. For Western and colony blot experiments, fibrinogen and antibodies were diluted in PBS while for spot membrane analysis they were diluted in MBS. Following three washes with PBS, the membrane was incubated with anti-fibrinogen antibodies (1:1000 in PBS or MBS) for 1 h. This incubation was followed by three washes with PBS, containing 0.05% tween 20 (PBST) and two washes with PBS. Subsequently, the membrane was incubated for 1 h with peroxidase-labelled anti-rabbit IgG (1:1000 in PBS or MBS). After three washes with PBST and two washes with PBS, bound fibrinogen was detected by chemiluminescence using the ECL-kit (Amersham/Pharmacia). In control experiments, no cross-reactivity of the used antibodies with the immobilized proteins and peptides was detected.

Experiment [2] concerns GBS 6313. The experiment in a line: Competitive inhibition of 125I-labelled fibrinogen binding to GBS. To be noted: for inhibition of fibrinogen binding to GBS: 160 μM synthetic peptide, radiolabelled fibrinogen. Also noted: species or system Streptococcus agalactiae. On the procedure: FbsA-9 differs from FbsA-19 in that it contains only 9 repeats in its repeat domain. The binding assay was performed with ^125I-labelled fibrinogen in the presence of different concentrations of each fusion protein. Each experiment was performed at least in triplicate.
Each experiment was performed at least in triplicate.
Purified human fibrinogen was radiolabelled with ^125I, using the chloramin T method (Hunter and Greenwood, 1962). Binding of labelled fibrinogen to GBS was performed essentially as described by Chhatwal et al. (Chhatwal, Muller, and Blobel, 1983). Briefly, overnight cultures of GBS were pelleted by centrifugation, washed twice with phosphate-buffered saline supplemented with 0.02% Tween 20 (PBST) and adjusted photometrically to a transmission of 10% at 600 nm. A total of 0.2 ml of the bacterial suspension was added to 20 μl of ^125I-labelled fibrinogen containing 23 ng of fibrinogen. After incubation for 1 h at room temperature, the streptococci were sedimented by centrifugation and washed with 1 ml of PBST. The radioactivity of the pellet was finally measured in a gamma counter (Packard Instruments). The amount of bacterial-bound fibrinogen was calculated as the percentage of total radiolabelled fibrinogen added to the bacteria. In inhibition experiments, the binding of 23 ng of radiolabelled fibrinogen to 0.2 ml of GBS (T=10%) was determined in the presence of various amounts of FbsA fusion proteins, Bsp fusion protein or synthetic peptides. Each experiment was repeated at least three times in triplicate.

Experiment [3] deals with A549 cells. The experiment in a line: Epithelial cell adherence and internalization assay of GBS 6313 in presence of proteins. The experiment is classed as cell-based, human. To be noted: fibrinogen 0.1 μg/ml to 1.0 μg/ml; fibronectin 10 μg/ml; data not shown. On the procedure: The adherence of GBS 6313 to A549 cells (A) and its internalization into these cells (B) was arbitrarily set to 100% and the results obtained in the presence of the different fusion proteins was related to these values. Each experiment was performed at least three times in triplicate.
Adherence of GBS to epithelial cells and internalization into epithelial cells was assayed essentially as described previously (Caparon et al., 1991; Rubens et al. 1992). Briefly, A549 cells were transferred to 24-well tissue culture plates at approximately 4×10^5 cells per well and cultivated overnight in RPMI (Gibco BRL) tissue culture medium, supplemented with 10% of fetal calf serum. After replacement of the medium with 1 ml of fresh medium, the cells were infected with 5×10^6 streptococci per well and incubated at 37° C. for 2 h. The non-adherent bacteria were removed by washing three times with PBS. In adherence assays, the epithelial cells were subsequently detached from the well by the addition of trypsin/EDTA and lysed by adding 300 μl of distilled water. Adherent bacteria were quantitated by plating serial dilutions of the lysate onto THY agar plates. For internalization assays the epithelial cells were incubated after 2 h of infection for another 2 h in tissue culture medium supplemented with penicilling G (10 U) and streptomycin (0.01 mg) to kill extracellular bacteria. After three washes with PBS, the epithelial cells were detached by the addition of trypsin/EDTA and lysed in 300 μl of distilled water. The amount of intracellular bacteria was quantified by plating serial dilutions of the lysate onto THY agar plates. Each experiment was repeated at least three times in triplicate. […]
Adherence of S. agalactiae to A549 and HEL299 cells and internalization into these cells was assayed essentially as described in Example 1 for A549 cells. In some experiments, A549 cells were preincubated with different amounts of FbsA protein or FbsA-derived peptides in RPMI medium for 30 min with three subsequent washes with PBS.

In experiment [4] the target is T1, human fibrinogen. The experiment in a line: Western blot of fusion proteins for fibrinogen binding. Particulars: His-tagged fusion proteins separated by SDS-PAGE, blotted, probed with human fibrinogen. An excerpt: The fibrinogen binding activity of the three proteins encoded by different constructs are indicated below the schematic FbsA drawing.
The fusion proteins were size-separated by SDS-PAGE, transferred onto a nitrocellulose membrane and tested for fibrinogen binding by Western blotting. Bound fibrinogen was detected with rabbit anti-fibrinogen antibodies, followed by peroxidase-labelled goat anti-rabbit antibodies, and visualized by chemiluminescence. PabC and Gbs0851: full-length fusion proteins; PabC-N: N-terminal 388 amino acids of PabC; PabC-C: C-terminal 222 amino acids of PabC. (C) Identification of the FbsA and PabC-binding sites within human fibrinogen by Western blot analysis. […] Bound fusion proteins were detected with mouse anti-HisTag antibodies, followed by peroxidase-conjugated goat anti-mouse IgG fab fragments and visualized by chemiluminescence. […]
Membranes that had been blocked overnight were incubated for 1 h with 2 μg/ml of human fibrinogen. […] After three washes with PBST and two washes with PBS, bound fibrinogen was detected by chemiluminescence using the ECL-kit (Amersham/Pharmacia). In control experiments, no cross-reactivity of the used antibodies with the immobilized proteins and peptides was detected.

T1 sequence (P02675 31-491): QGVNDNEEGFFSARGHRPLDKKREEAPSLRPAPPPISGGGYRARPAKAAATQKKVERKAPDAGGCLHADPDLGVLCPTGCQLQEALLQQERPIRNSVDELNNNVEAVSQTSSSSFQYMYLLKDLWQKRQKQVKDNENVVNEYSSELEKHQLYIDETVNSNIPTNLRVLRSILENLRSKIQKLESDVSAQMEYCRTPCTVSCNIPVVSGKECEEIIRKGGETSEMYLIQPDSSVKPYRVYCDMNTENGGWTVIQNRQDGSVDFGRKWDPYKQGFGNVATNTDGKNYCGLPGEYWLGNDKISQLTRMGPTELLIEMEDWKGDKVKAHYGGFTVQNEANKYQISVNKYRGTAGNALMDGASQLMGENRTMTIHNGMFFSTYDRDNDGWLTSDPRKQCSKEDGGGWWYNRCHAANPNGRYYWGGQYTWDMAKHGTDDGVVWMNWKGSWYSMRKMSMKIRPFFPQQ
T1 sequence (P02679 27-433): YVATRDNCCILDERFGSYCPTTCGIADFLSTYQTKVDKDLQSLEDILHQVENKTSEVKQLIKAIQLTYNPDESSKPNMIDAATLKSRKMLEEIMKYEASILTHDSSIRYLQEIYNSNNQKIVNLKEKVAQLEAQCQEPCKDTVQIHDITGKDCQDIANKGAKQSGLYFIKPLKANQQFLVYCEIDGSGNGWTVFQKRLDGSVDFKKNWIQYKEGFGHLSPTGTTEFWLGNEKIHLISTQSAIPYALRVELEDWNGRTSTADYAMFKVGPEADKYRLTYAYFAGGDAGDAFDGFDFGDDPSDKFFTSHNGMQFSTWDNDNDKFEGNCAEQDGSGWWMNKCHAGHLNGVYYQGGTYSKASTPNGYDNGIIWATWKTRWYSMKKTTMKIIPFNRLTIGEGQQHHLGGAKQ
T1 sequence (P02671 20-629): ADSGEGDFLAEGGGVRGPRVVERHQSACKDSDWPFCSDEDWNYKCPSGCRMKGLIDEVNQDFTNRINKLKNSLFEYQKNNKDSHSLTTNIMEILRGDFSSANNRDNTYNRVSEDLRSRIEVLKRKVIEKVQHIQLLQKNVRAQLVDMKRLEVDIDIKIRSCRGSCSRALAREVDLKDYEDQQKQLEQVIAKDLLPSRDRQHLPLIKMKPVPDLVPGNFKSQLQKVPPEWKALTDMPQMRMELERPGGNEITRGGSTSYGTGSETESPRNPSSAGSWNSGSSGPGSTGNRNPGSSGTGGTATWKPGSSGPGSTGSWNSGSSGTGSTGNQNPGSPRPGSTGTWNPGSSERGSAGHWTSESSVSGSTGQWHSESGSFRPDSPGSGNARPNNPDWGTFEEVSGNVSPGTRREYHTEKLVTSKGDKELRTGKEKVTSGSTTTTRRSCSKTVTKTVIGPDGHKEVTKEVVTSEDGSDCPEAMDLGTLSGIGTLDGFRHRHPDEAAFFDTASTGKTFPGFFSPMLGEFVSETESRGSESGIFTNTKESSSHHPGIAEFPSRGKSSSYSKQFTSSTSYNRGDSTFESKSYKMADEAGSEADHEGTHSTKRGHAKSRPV

For the molecule “GLSQNRDVRENQRARE (listed as Streptococcus agalactiae) [randomised peptide, reference compound]”, in experiment [1], the “fibrinogen binding of synthetic 16-mer peptides on spot membrane” value (“fibrinogen binding … on spot membrane” below) is recorded as “no binding of fibrinogen”.

On to “GNVLEARQRDAENRSQ [pep_R6A, synthetic FbsA repeat unit peptide carrying an R6A substitution]”, for which the “fibrinogen binding … on spot membrane” value in experiment [1] was “significantly reduced binding to fibrinogen”; in experiment [1] (listed as R6A) it was “retained little binding activity”. In addition, the “inhibition of fibrinogen binding to GBS” value in experiment [2] worked out at 20%.

For the molecule “GNVLERRQRDAENRSQ (listed as Streptococcus agalactiae) [pep_FbsA]”, in experiment [1], the “fibrinogen binding … on spot membrane” value is “strong interaction”. In experiment [2], the “inhibition of fibrinogen binding to GBS” value came to 80%.

Turning to “R^14K: FbsA repeat peptide with R14K substitution (GNVLERRQRDAENKSQ; listed as Streptococcus agalactiae)”, the “fibrinogen binding … on spot membrane” value in experiment [1] is recorded as “retained fibrinogen binding”.

On to fibronectin [reference compound], for which, in experiment [3], the “bacterial adherence to A549 cells after pre-incubation of S. agalactiae 6313 with protein” value is on record as “did not exert an inhibitory effect” and the “bacterial invasion of A549 cells after pre-incubation of S. agalactiae 6313 with protein” value is “did not exert an inhibitory effect”.

B1: FbsA-N: fusion protein with the 19 N-terminal repeats of FbsA-19, truncated at its C-terminus (protein)
chain: MDSVGNQSQGNVLERRQRDAENRSQGNVLERRQRDVENKSQGNVLERRQRDAENKSQGNVLERRQRDAENRSQGNVLERRQRDAENRSQGNVLERRQRDAENRSQGNVLERRQRDAENRSQGNVLERRQRDAENRSQGNVLERRQRDVENKSQGNVLERRQRDAENKSQGNVLERRQRDAENRSQGNVLERRQRDAENRSQGNVLERRQRDAENRSQGNVLERRQRDAENRSQGNVLERRQRDAENRSQGNVLERRQRDAENRSQGNVLERRQRDAENRSQGNVLERRQRDAENRSQGNVLERRQRDAENKSQVGQLIG
modifications: left off: small tags and cut ends
notes: fusion protein with the 19 N-terminal repeats of FbsA-19, truncated at its C-terminus
B1: in experiment [4], the “fibrinogen binding in Western blot” value is “fibrinogen binding was observed”.

B2: FbsA-9: derivative of FbsA-19 fusion protein with only 9 repeats in its repeat domain (protein)
chain: MDSVGNQSQGNVLERRQRDAENRSQGNVLERRQRDVENKSQGNVLERRQRDAENKSQGNVLERRQRDAENRSQGNVLERRQRDAENRSQGNVLERRQRDAENRSQGNVLERRQRDAENRSQGNVLERRQRDAENRSQGNVLERRQRDAENKSQVGQLIGKNPLLSKSIISRENNHSSQGDSNKQSFSKKVSQVTNVANRPMLTNNSRTISVINKLPKTGDDQNV
modifications: left off: small tags and cut ends
notes: derivative of FbsA-19 fusion protein with only 9 repeats in its repeat domain
With B2, in experiment [2] (increasing concentrations of purified fusion protein), the “inhibition of binding of 125I-labelled fibrinogen to GBS 6313” value is reported as “significantly higher concentration of FbsA-9 had to be used to obtain a comparable inhibition”.
